Where a chain is given by its changes, count along the chain named. Names may count otherwise.
B1: IL6R-BP256/IL6R-L (antibody, human IgG1, kappa)
heavy: QVQLQESGPGLVKPSETLSLTCAVSGHSISHDHAWSWVRQPPGEGLEWIGFISYSGITNYNPSLQGRVTISRDNSKNTLYLQMNSLRAEDTAVYYCARSLARTTAMDYWGEGTLVTVSSASTKGPSVFPLAPSSKSTSGGTAALGCLVKDYFPEPVTVSWNSGALTSGVHTFPAVLQSSGLYSLSSVVTVPSSSLGTQTYICNVNHKPSNTKVDKKVEPKSCDKTHTCPPCPAPDLLGDDDVFLFPPKPKDTLMISRTPEVTCVVVDVSDEDGEVKFNWYVDGVEVHNAKTKPREEQYNSTYRVVSVLTVLHQDWLNGKEYKCKVSNKALPRPIEKTISKAKGQPREPQVYTLPPSRDELTKNQVSLTCLVKGFYPSDIAVEWESNGQPENNYKTTPPVLDSDGSFFLYSKLTVDKSRWQQGNVFSCSVMHEALHNHYTQESLSLSP
light: not shown
notes: Homodimerized antibody; IL6R-BP256 is IL6R-BP208 with S239D
B2: IL6R-AP002/IL6R-BP256/IL6R-L (antibody, human IgG1, kappa)
heavy 1: B1 heavy with D241S, D358K, H437R, E441K
heavy 2: B1 heavy
light: not shown
notes: Heterodimerized antibody with S239D in one H chain only; IL6R-AP002 is IL6R-A5 (IL6R-G1d with D356K and H435R) with E233D, G237D, P238D, H268D, P271G and A330R
B3: IL6R-BP257/IL6R-L (antibody, human IgG1, kappa)
heavy: B1 heavy with D241E
light: not shown
notes: Homodimerized antibody; IL6R-BP257 is IL6R-BP208 with S239E
B4: IL6R-AP002/IL6R-BP257/IL6R-L (antibody, human IgG1, kappa)
heavy 1: B1 heavy with D241S, D358K, H437R, E441K
heavy 2: B1 heavy with D241E
light: not shown
notes: Heterodimerized antibody with S239E in one H chain only
B5: J142-z72/L180-k (antibody, human IgG4 S228P, kappa)
heavy: QVQLVQSGSELKKPGASVKVSCKASGYTFTDNNMDWVRQAPGQGLEWMGDINTRSGGSIYNEEFQDRVTMTIDKSTGTAYMELSSLRSEDTAVYYCARRRSYGYYHDEWGEGTLVTVSSASTKGPSVFPLAPCSRSTSESTAALGCLVKDYFPEPVTVSWNSGALTSGVHTFPAVLQSSGLYSLSSVVTVPSSSLGTKTYTCNVDHKPSNTKVDKRVESKYGPPCPPCPAPEFLGGPSVFLFPPKPKDTLMISRTPEVTCVVVDVSQEDPEVQFNWYVDGVEVHNAKTKPREEQFNSTYRVVSVLTVLHQDWLNGKEYKCKVSNKGLPSSIEKTISKAKGQPREPQVYTLPPSQEEMTKNQVSLTCLVKGFYPSDIAVEWESNGQPENNYKTTPPVLDSDGSFFLYSRLTVDKSRWQEGNVFSCSVMHEALHNRFTQKSLSLSP
light: DIQMTQSPSSLSASVGDRVTITCKASRNIERNLAWYQQKPGQAPELLIYSASRKESGVPDRFSGSRYGTDFTLTISSLQPEDLATYYCQQYYSPPLTFGGGTKVEIKRTVAAPSVFIFPPSDEQLKSGTASVVCLLNNFYPREAKVQWKVDNALQSGNSQESVTEQDSKDSTYSLSSTLTLSKADYEKHKVYACEVTHQGLSSPVTKSFNRGEC
notes: also called homomeric antibody against FX
B6: J300-z107/L210-k (antibody, human IgG4 S228P, kappa)
heavy: QVQLVQSGSELKKPGASVKVSCKASGYTFTDNNMDWVRQAPGQGLEWMGDINTRSGGSIYNEEFQDRVIMTVDKSTDTAYMELSSLRSEDTAVYHCARRKSYGYYLDEWGEGTLVTVSSASTKGPSVFPLAPCSRSTSESTAALGCLVKDYFPEPVTVSWNSGALTSGVHTFPAVLQSSGLYSLSSVVTVPSSSLGTQTYTCNVDHKPSNTKVDKRVESKYGPPCPPCPAPEFLGGPSVFLFPPKPKDTLMISRTPEVTCVVVDVSQEDPEVQFNWYVDGVEVHNAKTKPREEQYNSTYRVVSVLTVLHQDWLNGKEYKCKVSNKGLPSSIEKTISKAKGQPREPQVYTLPPSQEEMTKNQVSLTCLVKGFYPSDIAVEWESNGQPENNYKTTPPVLDSDGSFFLYSKLTVDKSRWQEGNVFSCSVMHEALHNRYTQESLSLSP
light: B5 light with L83I, Y92S
notes: z107 carries H435R; also called homomeric antibody against FX
B7: J142-z73/L180-k (antibody, human IgG4 S228P, kappa)
heavy: B5 heavy with K438E
light: B5 light
notes: as for B5

These binders were tested against T1, FcgRIIa type R extracellular domain with C-terminal His tag (human, UniProt P12318 34-217) (assay: SPR (Biacore), antibody captured on chip, soluble FcgR as analyte, kinetic 1:1 fit).
T1 construct: extracellular domain; also called FcgRIIaR; FcgRIIa R; not shown: His tag at the C terminus
T1 sequence (looked up): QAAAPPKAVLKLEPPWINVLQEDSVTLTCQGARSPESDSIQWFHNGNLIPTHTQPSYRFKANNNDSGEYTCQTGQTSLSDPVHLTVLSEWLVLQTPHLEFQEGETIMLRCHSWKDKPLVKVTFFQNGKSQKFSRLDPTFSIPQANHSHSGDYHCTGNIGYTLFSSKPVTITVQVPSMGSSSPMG
Description: (§1) The variants were assessed for the binding activity to FcgR Ia, FcgR IIaR, FcgR IIaH, and FcgRIIb according to the method described in Reference Example 8.
(§2) Analysis of interaction between obj ective antibody and the FcγR was carried out using Biacore T100 (GE Healthcare), Biacore T200, Biacore A100, and Biacore 4000. HBS-EP+ (GE Healthcare) was used as the running buffer, and the measurement temperature was set to 25° C. Chips produced by immobilizing the antigen peptide by the amine coupling method to a Series S sensor Chip CM5 (GE Healthcare), chips produced by allowing preliminarily biotinylated antigen peptides to interact with and immobilize onto a Series S Sensor Chip SA (certified) (GE Healthcare), chips produced by immobilizing Protein L (ACTIGEN, BioVision) to Series S Sencor Chip CM5 (GE Healthcare), or chips produced by immobilizing Protein A/G (Thermo Scientific) to Series S Sencor Chip CM5 (GE Healthcare) were used. Antibodies of interest were captured onto these chips, and allowed to interact to each FcγR diluted with running buffer. To regenerate and repeatedly use the chip, the antibodies captured onto the chip were washed off by reacting 10 mM glycine-HCl, pH 1.5.

Row | Binder | Kd [nM]
1 | B1 | 730
2 | B2 | 140
3 | B3 | 1300
4 | B4 | 130

What follows are binders tested against T2, FcgRIa extracellular domain with C-terminal His tag (human, UniProt P12314 16-292) in the same assay as above.
T2 construct: extracellular domain; Expressed in FreeStyle293 cells; also called FcγRIa; not shown: His tag at the C terminus
T2 sequence (P12314 16-292): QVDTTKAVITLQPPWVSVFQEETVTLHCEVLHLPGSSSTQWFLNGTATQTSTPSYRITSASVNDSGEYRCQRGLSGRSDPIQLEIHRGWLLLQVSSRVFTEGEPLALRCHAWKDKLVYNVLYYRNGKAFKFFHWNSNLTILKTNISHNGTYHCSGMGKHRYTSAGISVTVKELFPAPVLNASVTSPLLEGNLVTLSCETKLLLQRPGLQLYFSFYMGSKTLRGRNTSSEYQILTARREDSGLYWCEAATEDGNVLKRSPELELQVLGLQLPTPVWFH
Description: as §1, §2

Row | Binder | Kd [nM]
5 | B1 | 2
6 | B2 | 3.6
7 | B3 | 0.31
8 | B4 | 1.9

Each binder was assayed against T3, FcgRIIb extracellular domain with C-terminal His tag (human, UniProt P31994 43-217) in the same assay as above.
T3 construct: extracellular domain; Expressed in FreeStyle293 cells; also called FcγRIIb; 2b; not shown: His tag at the C terminus
T3 sequence (looked up): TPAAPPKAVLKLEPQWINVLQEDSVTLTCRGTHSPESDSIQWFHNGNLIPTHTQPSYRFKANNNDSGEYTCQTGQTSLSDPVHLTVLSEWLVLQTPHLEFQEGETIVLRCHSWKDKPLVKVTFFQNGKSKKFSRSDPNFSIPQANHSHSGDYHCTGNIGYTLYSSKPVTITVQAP
Description: as §1, §2

Row | Binder | Kd [nM]
9 | B1 | 87
10 | B2 | 4.1
11 | B3 | 430
12 | B4 | 4.7

Each binder was assayed against T4, FcgRIIa type H extracellular domain with C-terminal His tag (human, UniProt P12318 34-217) in the same assay as above.
T4 construct: extracellular domain; also called FcgRIIaH; FcgRIIa H; not shown: His tag at the C terminus
T4 sequence (looked up): T1 sequence (looked up) with R134H
Description: as §1, §2

Row | Binder | Kd [µM]
13 | B2 | 4.2
14 | B4 | 4.9

The binders below were run against T3, FcgRIIb extracellular domain with … (assay: SPR (Biacore); KD of the sample for FcgRIIaR divided by its KD for FcgRIIb (selectivity for FcgRIIb)).
Description: as §2

Row | Binder | KD(IIaR)/KD(IIb) [ratio]
15 | B1 | 8.4
16 | B2 | 34.3
17 | B3 | 3
18 | B4 | 27.7

The binders below were run against T5, Protein A (UniProt P38507 37-327) (assay: rProtein A Sepharose column, stepwise pH elution; fractions analysed by cation exchange chromatography).
T5 construct: bought resin; construct not described; also called rProtein A Sepharose Fast Flow

Row | Binder | binding result
19 | B5 | no binding
20 | B6 | no binding
21 | B7 | no binding

The binders below were run against T4, FcgRIIa type H extracellular domain … (assay: SPR (Biacore), antibody captured on chip, soluble FcgR as analyte; too weak for kinetics, KD from steady-state 1:1 equation).
Description: (§3) KD can be calculated by substituting the values of Rmax, RI, and C into this equation. The values of RI and C can be determined from the sensorgram of the measurement results and measurement conditions. Rmax was calculated according to the following method.

Row | Binder | Kd [µM]
22 | B1 | 21
23 | B3 | 39

Each binder was assayed against T6, FcgRIIIa type V extracellular domain with C-terminal His tag (human, UniProt P08637 17-208) in the same assay as above.
T6 construct: extracellular domain; also called FcgRIIIaV; FcgRIIIa V; not shown: His tag at the C terminus
T6 sequence (P08637 17-208 F176V): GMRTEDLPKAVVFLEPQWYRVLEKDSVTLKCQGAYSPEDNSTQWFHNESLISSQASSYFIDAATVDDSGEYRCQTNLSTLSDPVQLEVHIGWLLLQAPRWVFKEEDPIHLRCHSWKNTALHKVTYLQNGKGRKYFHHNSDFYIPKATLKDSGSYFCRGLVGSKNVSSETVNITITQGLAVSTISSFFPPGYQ
Description: as §3

Row | Binder | Kd [µM]
24 | B1 | 11
25 | B2 | 17
26 | B3 | 19
27 | B4 | 14

The binders below were run against T1, FcgRIIa type R extracellular domain … (assay: SPR (Biacore); KD of IL6R-B3/IL6R-L for this FcgR divided by KD of the sample).
Description: as §2

Row | Binder | Relative KD [ratio]
28 | B1 | 1.5
29 | B2 | 7.7
30 | B3 | 0.9
31 | B4 | 8.3

These binders were tested against T3, FcgRIIb extracellular domain with … in the same assay as above.
Description: as §2

Row | Binder | Relative KD [ratio]
32 | B1 | 35.7
33 | B2 | 752
34 | B3 | 7.2
35 | B4 | 657

These binders were tested against T4, FcgRIIa type H extracellular domain … in the same assay as above.
Description: as §2

Row | Binder | Relative KD [ratio]
36 | B1 | 0
37 | B2 | 0.2
38 | B3 | 0
39 | B4 | 0.2
